Data set [1] addresses Stx2a A-subunit (enterohemorrhagic Escherichia coli, UniProt P09385 23-319). Description: crystal structure. As to conditions: both partners purified.
Data set [2] deals with the molecule itself. Description: crystal structure.

The record followed here is article PMC8111002 (Communications Biology, 2021).

B1: Stx2a B-subunit pentamer of the holotoxin (untagged) (natural protein)
chain: ADCAKGKIEFSKYNEDDTFTVKVDGKEYWTSRWNLQPLLQSAQLTGMTVTIKSSTCESGSGFAEVQFNND
Regarding B1, the binding result in data set [1] and in data set [2] was “binds” in each case.
